Laboratory results published in PMC3877758 (2013).
Each block holds one molecule with its values, some of them ahead of it.

What was measured:
[1] = molecular target: eIF2 (yeast (Saccharomyces cerevisiae)) (UniProt P20459); test: pull-down; GDF assay (competition): 1 µg eIF2 or eIF2αP and 1 µg GST-eIF5 bound to glutathione sepharose beads 2 h at 4°C, washed, then challenged 2 h at 4°C with increasing concentrations of Flag-eIF2B complexes, subunits or eIF5-Flag; 30 mM HEPES, 100 mM KCl, 100 µM GDP, 5 mM DTT, 1 mM NaF, 2.5 mM MgCl2, 0.05% Triton X-100; bound eIF2 by immunoblot; fit y = 1 − [x/(x + IC50)]
Rab9 = Rab9 (UniProt P51151); conditions: cited from earlier work
Rab9, sequence (P51151 2-201): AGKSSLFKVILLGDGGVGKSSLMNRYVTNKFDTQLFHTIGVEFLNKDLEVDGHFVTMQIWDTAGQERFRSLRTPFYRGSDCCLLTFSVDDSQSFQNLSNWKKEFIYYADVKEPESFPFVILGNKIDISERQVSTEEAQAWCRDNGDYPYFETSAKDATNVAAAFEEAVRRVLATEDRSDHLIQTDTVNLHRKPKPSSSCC

[2] = molecular target: eIF5 (Saccharomyces cerevisiae) (UniProt P38431); conditions: cited from earlier work
eIF5 (Saccharomyces cerevisiae), sequence (P38431 whole entry): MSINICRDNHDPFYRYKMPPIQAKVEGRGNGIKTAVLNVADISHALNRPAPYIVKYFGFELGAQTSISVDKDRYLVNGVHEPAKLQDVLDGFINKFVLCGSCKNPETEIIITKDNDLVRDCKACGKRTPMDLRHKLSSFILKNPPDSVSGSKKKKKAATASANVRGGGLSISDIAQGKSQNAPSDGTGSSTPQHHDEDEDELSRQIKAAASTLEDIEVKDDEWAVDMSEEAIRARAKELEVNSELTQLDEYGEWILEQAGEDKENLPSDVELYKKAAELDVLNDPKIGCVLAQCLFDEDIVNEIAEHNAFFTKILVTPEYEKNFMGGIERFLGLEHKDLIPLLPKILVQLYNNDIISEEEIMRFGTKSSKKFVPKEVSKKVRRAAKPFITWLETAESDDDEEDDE

[3] = molecular target: eIF2 (yeast (Saccharomyces cerevisiae)) (UniProt P20459)
[4] = molecular target: eIF2 (yeast (Saccharomyces cerevisiae)) (UniProt P20459); test: other; displacement of eIF2 from GST-eIF5 (GDF assay); conditions: complex; chains chain;chain;chain;chain
eIF2 = molecular target: T1, eIF2 (yeast (Saccharomyces cerevisiae), UniProt P20459 1-304; P09064 1-285; P32481 1-527); test: displacement of eIF2 from GST-eIF5 (GDF assay)
T1 chain 1: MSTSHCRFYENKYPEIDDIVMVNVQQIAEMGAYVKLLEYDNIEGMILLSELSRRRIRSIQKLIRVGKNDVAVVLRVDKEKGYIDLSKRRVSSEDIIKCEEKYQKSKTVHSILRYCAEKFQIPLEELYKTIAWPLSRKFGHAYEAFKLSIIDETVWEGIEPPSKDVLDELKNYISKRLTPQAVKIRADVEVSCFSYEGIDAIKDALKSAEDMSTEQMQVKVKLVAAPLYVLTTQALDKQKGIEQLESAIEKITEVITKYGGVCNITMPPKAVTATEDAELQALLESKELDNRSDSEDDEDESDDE
T1 chain 2: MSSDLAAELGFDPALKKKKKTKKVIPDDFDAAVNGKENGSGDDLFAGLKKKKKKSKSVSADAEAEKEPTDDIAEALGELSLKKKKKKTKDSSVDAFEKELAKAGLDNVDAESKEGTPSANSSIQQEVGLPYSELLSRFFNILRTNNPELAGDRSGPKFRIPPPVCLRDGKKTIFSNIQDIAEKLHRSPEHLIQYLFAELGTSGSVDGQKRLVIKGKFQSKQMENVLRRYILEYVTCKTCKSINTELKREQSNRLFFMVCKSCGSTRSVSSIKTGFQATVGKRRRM
T1 chain 3: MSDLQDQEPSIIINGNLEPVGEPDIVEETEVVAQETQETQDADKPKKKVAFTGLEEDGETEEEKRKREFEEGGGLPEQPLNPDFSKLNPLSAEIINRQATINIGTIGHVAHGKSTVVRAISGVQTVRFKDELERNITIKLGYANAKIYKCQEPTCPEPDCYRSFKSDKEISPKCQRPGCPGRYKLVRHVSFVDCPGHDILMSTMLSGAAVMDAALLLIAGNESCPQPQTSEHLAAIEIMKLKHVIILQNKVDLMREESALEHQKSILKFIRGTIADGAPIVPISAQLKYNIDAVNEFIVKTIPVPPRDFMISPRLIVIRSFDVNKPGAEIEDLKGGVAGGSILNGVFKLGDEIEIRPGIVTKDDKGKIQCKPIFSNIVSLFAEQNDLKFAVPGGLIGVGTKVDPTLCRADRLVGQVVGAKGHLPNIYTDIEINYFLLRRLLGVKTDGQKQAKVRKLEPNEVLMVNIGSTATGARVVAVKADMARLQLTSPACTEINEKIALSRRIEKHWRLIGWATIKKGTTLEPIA

[5] = molecular target: eIF2 (yeast (Saccharomyces cerevisiae)) (UniProt P20459); test: pull-down; GDF assay (competition): 1 µg eIF2 or eIF2αP and 1 µg GST-eIF5 bound to glutathione sepharose beads 2 h at 4°C, washed, then challenged 2 h at 4°C with increasing concentrations of Flag-eIF2B complexes, subunits or eIF5-Flag; 30 mM HEPES, 100 mM KCl, 100 µM GDP, 5 mM DTT, 1 mM NaF, 2.5 mM MgCl2, 0.05% Triton X-100; bound eIF2 by immunoblot; fit y = 1 − [x/(x + IC50)]; remark: listed apart in the source

Molecule: Flag-tagged eIF5 (eIF5-Flag) (from UniProt P38431 1-405) (natural protein)
IC50 [1]: 244 nM

Molecule: GDIα (from UniProt P21856)
Kd (Rab9): < 23 nM

Molecule: eIF2 (from UniProt P20459)
Kd [2]: 23 nM

B1: eIF2Bγ subunit alone (natural protein)
chain: MSIQAFVFCGKGSNLAPFTQPDFPFQTQNKDSTAATSGDKLNELVNSALDSTVINEFMQHSTRLPKALLPIGNRPMIEYVLDWCDQADFKEISVVAPVDEIELIESGLTSFLSLRKQQFELIYKALSNSNHSHHLQDPKKINFIPSKANSTGESLQKELLPRINGDFVILPCDFVTDIPPQVLVDQFRNRDDNNLAMTIYYKNSLDSSIDKKQQQKQKQQQFFTVYSENEDSERQPILLDVYSQRDVTKTKYLQIRSHLLWNYPNLTVSTKLLNSFIYFCSFELCQLLKLGPQSMSRQASFKDPFTGNQQQQNPPTTDDDEDRNHDDDDDYKPSATSIQPTYFKKKNDLILDPINCNKSLSKVFRDLSRRSWQHSKPREPIGIFILPNETLFIRANNLNAYMDANRFVLKIKSQTMFTKNIQIQSAAIGADAIVDPKCQISAHSNVKMSVLGTQANIGSRCRVAGSLLFPGVHLGDEVILENCIIGPMAKIGSKCKLSNCYIEGHYVVEPKNNFKGETLANVYLDEDEEDELIYDDSVIAGESEIAEETDSDDRSDEDSDDSEYTDEYEYEDDGLFER
IC50 (eIF2): 318 nM

B3: eIF2Bγɛ subcomplex (catalytic subcomplex of eIF2B) (complex)
chain 1: MSIQAFVFCGKGSNLAPFTQPDFPFQTQNKDSTAATSGDKLNELVNSALDSTVINEFMQHSTRLPKALLPIGNRPMIEYVLDWCDQADFKEISVVAPVDEIELIESGLTSFLSLRKQQFELIYKALSNSNHSHHLQDPKKINFIPSKANSTGESLQKELLPRINGDFVILPCDFVTDIPPQVLVDQFRNRDDNNLAMTIYYKNSLDSSIDKKQQQKQKQQQFFTVYSENEDSERQPILLDVYSQRDVTKTKYLQIRSHLLWNYPNLTVSTKLLNSFIYFCSFELCQLLKLGPQSMSRQASFKDPFTGNQQQQNPPTTDDDEDRNHDDDDDYKPSATSIQPTYFKKKNDLILDPINCNKSLSKVFRDLSRRSWQHSKPREPIGIFILPNETLFIRANNLNAYMDANRFVLKIKSQTMFTKNIQIQSAAIGADAIVDPKCQISAHSNVKMSVLGTQANIGSRCRVAGSLLFPGVHLGDEVILENCIIGPMAKIGSKCKLSNCYIEGHYVVEPKNNFKGETLANVYLDEDEEDELIYDDSVIAGESEIAEETDSDDRSDEDSDDSEYTDEYEYEDDGLFER
chain 2: MAGKKGQKKSGLGNHGKNSDMDVEDRLQAVVLTDSYETRFMPLTAVKPRCLLPLANVPLIEYTLEFLAKAGVHEVFLICSSHANQINDYIENSKWNLPWSPFKITTIMSPEARCTGDVMRDLDNRGIITGDFILVSGDVLTNIDFSKMLEFHKKMHLQDKDHISTMCLSKASTYPKTRTIEPAAFVLDKSTSRCIYYQDLPLPSSREKTSIQIDPELLDNVDEFVIRNDLIDCRIDICTSHVPLIFQENFDYQSLRTDFVKGVISSDILGKHIYAYLTDEYAVRVESWQTYDTISQDFLGRWCYPLVLDSNIQDDQTYSYESRHIYKEKDVVLAQSCKIGKCTAIGSGTKIGEGTKIENSVIGRNCQIGENIRIKNSFIWDDCIIGNNSIIDHSLIASNATLGSNVRLNDGCIIGFNVKIDDNMDLDRNTKISASPLKNAGSRMYDNESNEQFDQDLDDQTLAVSIVGDKGVGYIYESEVSDDEDSSTEACKEINTLSNQLDELYLSDDSISSATKKTKKRRTMSVNSIYTDREEIDSEFEDEDFEKEGIATVERAMENNHDLDTALLELNTLRMSMNVTYHEVRIATITALLRRVYHFIATQTLGPKDAVVKVFNQWGLLFKRQAFDEEEYIDLMNIIMEKIVEQSFDKPDLILFSALVSLYDNDIIEEDVIYKWWDNVSTDPRYDEVKKLTVKWVEWLQNADEESSSEEE
IC50 (eIF2): 20 nM

The remaining lines, values ahead:

K1/2 of mutant eIF2B for [3H]GDP release from eIF2 prebound to eIF5 (coupled GDI–GDF–GEF assay; pair displaced: eIF2 and eIF5) [3]: 134 nM
Molecule: eIF2B-γG12V (mutant eIF2B complex) (from UniProt P14741 1-305; P32502 1-381; P09032 1-578; P12754 1-651; P32501 1-712)

K1/2 of mutant eIF2B for [3H]GDP release from eIF2 prebound to eIF5 (coupled GDI–GDF–GEF assay; pair displaced: eIF2 and eIF5) [3]: 134 nM
Molecule: eIF2B-γL480Q (mutant eIF2B complex) (from UniProt P14741 1-305; P32502 1-381; P09032 1-578; P12754 1-651; P32501 1-712)

IC50 [4]: 25.7 nM
Molecule: four-subunit eIF2B complex lacking the α subunit (eIF2Bβδγɛ), P32502 1-381; P12754 1-651; P09032 1-578; P32501 1-712

IC50 [5]: 215 nM
B2: eIF2Bɛ subunit alone (natural protein)
chain: MAGKKGQKKSGLGNHGKNSDMDVEDRLQAVVLTDSYETRFMPLTAVKPRCLLPLANVPLIEYTLEFLAKAGVHEVFLICSSHANQINDYIENSKWNLPWSPFKITTIMSPEARCTGDVMRDLDNRGIITGDFILVSGDVLTNIDFSKMLEFHKKMHLQDKDHISTMCLSKASTYPKTRTIEPAAFVLDKSTSRCIYYQDLPLPSSREKTSIQIDPELLDNVDEFVIRNDLIDCRIDICTSHVPLIFQENFDYQSLRTDFVKGVISSDILGKHIYAYLTDEYAVRVESWQTYDTISQDFLGRWCYPLVLDSNIQDDQTYSYESRHIYKEKDVVLAQSCKIGKCTAIGSGTKIGEGTKIENSVIGRNCQIGENIRIKNSFIWDDCIIGNNSIIDHSLIASNATLGSNVRLNDGCIIGFNVKIDDNMDLDRNTKISASPLKNAGSRMYDNESNEQFDQDLDDQTLAVSIVGDKGVGYIYESEVSDDEDSSTEACKEINTLSNQLDELYLSDDSISSATKKTKKRRTMSVNSIYTDREEIDSEFEDEDFEKEGIATVERAMENNHDLDTALLELNTLRMSMNVTYHEVRIATITALLRRVYHFIATQTLGPKDAVVKVFNQWGLLFKRQAFDEEEYIDLMNIIMEKIVEQSFDKPDLILFSALVSLYDNDIIEEDVIYKWWDNVSTDPRYDEVKKLTVKWVEWLQNADEESSSEEE
